Publication PMC9163039

Target: mRuby2-Tau (human Tau full length) (human) (UniProt P10636)
Experiment: FRET or BRET; FLIM-FRET (clover donor lifetime) in living SH-SY5Y cells after hyperosmotic stress (sucrose); only pixels belonging to BAG2 condensates fitted

Sequence of UniProt P10636 (P10636 2-758): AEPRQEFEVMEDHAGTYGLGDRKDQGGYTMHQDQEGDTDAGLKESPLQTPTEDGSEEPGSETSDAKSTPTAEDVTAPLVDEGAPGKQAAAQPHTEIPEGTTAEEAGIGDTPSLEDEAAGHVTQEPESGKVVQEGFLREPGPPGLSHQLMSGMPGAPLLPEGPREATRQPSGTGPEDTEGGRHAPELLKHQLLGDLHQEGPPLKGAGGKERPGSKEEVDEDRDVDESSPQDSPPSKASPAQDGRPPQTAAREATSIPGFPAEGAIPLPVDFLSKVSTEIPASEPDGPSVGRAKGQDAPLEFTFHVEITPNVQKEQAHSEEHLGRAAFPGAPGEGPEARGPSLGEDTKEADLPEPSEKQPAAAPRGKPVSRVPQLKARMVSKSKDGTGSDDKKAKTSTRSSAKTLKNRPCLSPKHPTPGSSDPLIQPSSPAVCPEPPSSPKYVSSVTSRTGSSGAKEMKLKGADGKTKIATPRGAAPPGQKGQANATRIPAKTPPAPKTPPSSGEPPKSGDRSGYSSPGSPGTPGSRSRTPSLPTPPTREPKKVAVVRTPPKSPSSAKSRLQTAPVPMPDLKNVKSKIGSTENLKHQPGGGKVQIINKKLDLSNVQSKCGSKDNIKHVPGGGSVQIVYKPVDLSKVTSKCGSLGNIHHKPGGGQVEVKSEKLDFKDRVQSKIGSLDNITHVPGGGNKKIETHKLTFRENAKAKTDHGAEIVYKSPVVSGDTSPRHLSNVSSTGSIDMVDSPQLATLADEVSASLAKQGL

fluorescence lifetime of the donor (FLIM-FRET), pixels of BAG2 condensates after stress: 2.8 ns
Substance: mClover2-BAG2 (Bcl2-associated athanogene 2, full length) (from UniProt O95816 1-211) (natural protein)
